Values joined by “and” are separate entries in the source; they are usually repeats but may differ in a detail not shown here. Identical values can stand only once. Like-named read-outs stand apart in the source and are kept apart here. Square brackets hold non-standard residues; d marks the D form. Peptide text beside a SMILES is read from it. * marks the point of attachment. DOTA = O=C(O)CN1CCN(CC(=O)O)CCN(CC(=O)*)CCN(CC(=O)O)CC1; Met(O2) = CS(=O)(=O)CC[C@H](N)C(=O)O; 2Thi = N[C@@H](Cc1cccs1)C(=O)O
Experiments:
[1] = type: physicochemical
Description: A solution of purified ^177Lu-radioconjugate (around 1 MBq) or ^68Ga-radioconjugate (around 10 MBq) in 100 µL of 0.1M DPBS buffer was added into of 900 µL of 0.1 M DPBS buffer and 1000 µL of N-octanol (saturated with each other), vigorously stirred and centrifuged at 13,500 rpm for 5 min. Then, similar aliquots of both separated phases were taken for radioactivity measurement using a well-type NaI(Tl) detector. The lipophilicity values were expressed as the decimal logarithm of the distribution coefficient, D, which was calculated as a ratio of the radioconjugate radioactivity in the organic phase to that in the aqueous phase. Each experiment was performed in triplicate and the obtained values averaged. In parallel, the aqueous phases were analyzed by HPLC to confirm the stability of the studied radioconjugate during the experiment time.

human NK1 receptor = molecular target: T1, human NK1 receptor (Homo sapiens, UniProt P25103); test: Saturation binding of 177Lu-radioconjugates to hNK1R-CHO cells; conditions: maximal binding concentration, 60 min at 37 °C, specific activity 5 MBq/nmol
T1 construct: expressed in transfected cells; host or cells: CHO-K1 (hNK1R-CHO), gift from Dr. Attila Keresztes and Dr. John M. Streicher
T1 sequence (P25103 whole entry): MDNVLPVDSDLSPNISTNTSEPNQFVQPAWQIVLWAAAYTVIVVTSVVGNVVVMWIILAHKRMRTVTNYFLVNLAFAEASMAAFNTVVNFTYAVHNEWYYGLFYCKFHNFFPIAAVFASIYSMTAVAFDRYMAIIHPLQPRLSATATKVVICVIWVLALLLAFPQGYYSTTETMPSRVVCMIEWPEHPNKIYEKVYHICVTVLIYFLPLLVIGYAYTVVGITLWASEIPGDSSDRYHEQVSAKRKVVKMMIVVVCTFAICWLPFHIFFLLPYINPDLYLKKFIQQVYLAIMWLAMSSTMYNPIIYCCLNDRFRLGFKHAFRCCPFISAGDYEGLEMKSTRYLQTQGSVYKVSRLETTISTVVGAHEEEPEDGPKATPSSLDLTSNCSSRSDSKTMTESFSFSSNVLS
Description: Cells were grown in Ham’s F12 medium (Biological Industries, Beit HaEmek, Israel) supplemented with 10% Foetal Bovine Serum (Biological Industries, Beit HaEmek, Israel) and 400 μg/mL G418 (Capricorn Scientific, Ebsdorfergrund, Germany), incubated in a humidified atmosphere with 5% CO2 at 37 °C.
In brief, 10^5 cells per well were seeded into 24-well plates and incubated 24 h before the experiment. Just before the assay, the cells were washed with 37 °C Dulbecco’s PBS and then incubated with different concentrations of an analyzed radioconjugate (0.2–50 nM at a final volume) in the medium, with or without a 1000-fold molar excess of blocker (aprepitant or [Thi^8,Met(O2)^11]SP) in relation to the highest radioconjugate concentration applied for 60 min at 37 °C. After incubation time, the assay medium was collected into plastic tubes for radioactivity measurement and the cells were washed twice with ice-cold Dulbecco’s PBS. Subsequently, the cells were lysed using 1 M NaOH and collected into plastic tubes also for radioactivity measurement.
The radioactivity of collected samples were measured using a Wizard2 2-Detector Gamma Counter (PerkinElmer, Waltham, MA, USA). […] The Kd and BMAX with standard deviations (SD), were calculated using the “One site-total and nonspecific binding” nonlinear regression curve fit (GraphPad Prism 8, GraphPad, San Diego, CA, USA).

C[C@@H](O[C@H]1OCCN(Cc2nn(CCCCCCCCCCNC(=O)CN3CCN(CC(=O)O)CCN(CC(=O)O)CCN(CC(=O)O)CC3)c(=O)[nH]2)[C@H]1c1ccc(F)cc1)c1cc(C(F)(F)F)cc(C(F)(F)F)c1 [APT-Dec-DOTA, 2-(10-(2-(1,4,7-tris(carboxymethyl)-1,4,7,10-tetraazacyclododecan-10-yl)acetamido)decyl)-5-([(2R,3S)-2-((R)-1-[3,5-bis(trifluoromethyl)phenyl]ethoxy)-3-(4-fluorophenyl)morpholino]methyl)-1H-1,2,4-triazol-3-one]
logD ([1]; pH 7.4, logD 68Ga-): 1.6 ± 0.04 | logD ([1]; pH 7.4, logD 177Lu-): 1.97 ± 0.02

C[C@@H](O[C@H]1OCCN(Cc2nn(CCCCCCNC(=O)CN3CCN(CC(=O)O)CCN(CC(=O)O)CCN(CC(=O)O)CC3)c(=O)[nH]2)[C@H]1c1ccc(F)cc1)c1cc(C(F)(F)F)cc(C(F)(F)F)c1 [APT-Hex-DOTA, 2-(6-(2-(1,4,7-tris(carboxymethyl)-1,4,7,10-tetraazacyclododecan-10-yl)acetamido)hexyl)-5-([(2R,3S)-2-((R)-1-[3,5-bis(trifluoromethyl)phenyl]ethoxy)-3-(4-fluorophenyl)morpholino]methyl)-1H-1,2,4-triazol-3-one]
logD ([1]; pH 7.4, logD 68Ga-): 0.58 ± 0.03 | logD ([1]; pH 7.4, logD 177Lu-): 1.23 ± 0.03

C[C@@H](O[C@H]1OCCN(Cc2nn(CCCCCCCCNC(=O)CN3CCN(CC(=O)O)CCN(CC(=O)O)CCN(CC(=O)O)CC3)c(=O)[nH]2)[C@H]1c1ccc(F)cc1)c1cc(C(F)(F)F)cc(C(F)(F)F)c1 [APT-Oct-DOTA, 2-(8-(2-(1,4,7-tris(carboxymethyl)-1,4,7,10-tetraazacyclododecan-10-yl)acetamido)octyl)-5-([(2R,3S)-2-((R)-1-[3,5-bis(trifluoromethyl)phenyl]ethoxy)-3-(4-fluorophenyl)morpholino]methyl)-1H-1,2,4-triazol-3-one]
logD ([1]; pH 7.4, logD 68Ga-): 1.32 ± 0.04 | logD ([1]; pH 7.4, logD 177Lu-): 1.64 ± 0.02

CC(C)C[C@H](NC(=O)CNC(=O)[C@H](Cc1cccs1)NC(=O)[C@H](Cc1ccccc1)NC(=O)[C@H](CCC(N)=O)NC(=O)[C@H](CCC(N)=O)NC(=O)[C@@H]1CCCN1C(=O)[C@H](CCCCN)NC(=O)[C@@H]1CCCN1C(=O)[C@H](CCCNC(=N)N)NC(=O)CN1CCN(CC(=O)O)CCN(CC(=O)O)CCN(CC(=O)O)CC1)C(=O)N[C@@H](CCS(C)(=O)=O)C(N)=O [[^177Lu]Lu-DOTA-[Thi^8,Met(O2)^11]SP, metal not drawn] ({DOTA}-RPKPQQF[2Thi]GL[Met(O2)]-NH2; N-terminus and C-terminus assumed)
BMAX ± SD (human NK1 receptor): 0.38 nM and 0.38 ± 0.02 nM
